Each block holds one molecule with its values, some of them ahead of it.
Columns and labels:
GPNMB [1] = target: T1, GPNMB (Homo sapiens, UniProt Q14956); experiment: GPNMB immunohistochemistry (IHC) on human tissue microarrays; assay type: binding; conditions: normal and tumor human tissue microarrays (lung, ovarian, renal, esophagus, head & neck carcinomas, squamous cell carcinoma, melanomas, normal skin)
T1 construct: Tissue sections (5 μm) were cut from formalin fixed and paraffin embedded tissue samples; tissue IMPATH, Los Angeles, Calif; host or cells: normal and tumor human tissue microarrays (melanoma, lung and other carcinomas, skin)
T1 sequence (Q14956 23-572): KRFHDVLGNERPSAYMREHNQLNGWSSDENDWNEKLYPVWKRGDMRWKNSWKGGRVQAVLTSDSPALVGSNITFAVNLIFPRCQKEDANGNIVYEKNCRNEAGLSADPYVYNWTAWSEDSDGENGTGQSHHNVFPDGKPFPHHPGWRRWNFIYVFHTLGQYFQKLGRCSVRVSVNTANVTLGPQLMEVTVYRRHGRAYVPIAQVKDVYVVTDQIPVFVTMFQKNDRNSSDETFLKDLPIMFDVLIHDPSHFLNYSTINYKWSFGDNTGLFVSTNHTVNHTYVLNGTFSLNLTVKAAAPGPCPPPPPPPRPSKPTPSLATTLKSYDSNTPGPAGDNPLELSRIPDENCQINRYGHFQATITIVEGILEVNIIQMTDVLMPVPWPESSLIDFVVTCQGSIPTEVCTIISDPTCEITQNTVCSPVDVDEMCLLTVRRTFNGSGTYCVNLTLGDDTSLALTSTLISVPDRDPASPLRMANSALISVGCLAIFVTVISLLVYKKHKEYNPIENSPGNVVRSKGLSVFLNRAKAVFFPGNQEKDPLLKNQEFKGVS
Experimental: Anti-GPNMB monoclonal antibodies were evaluated for reactivity with frozen and fixed tissue specimens. Tissue sections (5 μm) were cut from formalin fixed and paraffin embedded tissue samples and were rehydrated through incubations in xylene and a graded ethanol series terminating in PBS. Endogenous peroxidase activity was quenched in a 3% solution of hydrogen peroxide in methanol
Tissue sections were blocked in blocking buffer (5% BSA (Sigma), 1% goat serum (Jackson Immunolabs, West Grove, Pa.) in PBS) for 1 hour. Primary and secondary antibodies were precomplexed in 5% BSA and 1% goat serum in PBS for 1 hour at 37° C. at a molar ratio of approximately 10:1 of anti-GPNMB or control IgG to secondary biotinylated goat anti-human IgG (Jackson Immunolabs). Complexes were blocked with a 1:2000 dilution of human serum and incubated again for 1 hour at 37° C. Tissue sections were incubated with anti-GPNMB antibody or isotype control antibody complexes diluted in blocking buffer for 1 hour. Sections were washed in 3 changes of PBS for 5 to 10 minutes each and incubated with a 1:200 dilution of streptavidin conjugated horseradish peroxidase (Jackson Immunolabs) in blocking buffer for 30 minutes and then washed as before. Antibody was detected using DAB reagent (Vector labs). […]

[2] = target: T2, cell membrane-bound GPNMB protein (Homo sapiens, UniProt Q14956); experiment: FACS analysis of anti-GPNMB antibody binding to melanoma cell lines; conditions: primary antibody 1 μg/mL
T2 construct: endogenous in cells; host or cells: UACC-62 and a panel of melanoma lines (A5)
T2 sequence (Q14956 23-572): T1 sequence (Q14956 23-572)

GPNMB [3] = target: T3, GPNMB (Homo sapiens, UniProt Q14956); experiment: Binning of antibodies (Luminex competitive binding); conditions: three bins of six anti-GPNMB antibodies
T3 construct: we cloned the human CG56972 extracellular domain (ECD; aa 23-480); made in house; host or cells: HEK 293 cells
T3 sequence (Q14956 23-492): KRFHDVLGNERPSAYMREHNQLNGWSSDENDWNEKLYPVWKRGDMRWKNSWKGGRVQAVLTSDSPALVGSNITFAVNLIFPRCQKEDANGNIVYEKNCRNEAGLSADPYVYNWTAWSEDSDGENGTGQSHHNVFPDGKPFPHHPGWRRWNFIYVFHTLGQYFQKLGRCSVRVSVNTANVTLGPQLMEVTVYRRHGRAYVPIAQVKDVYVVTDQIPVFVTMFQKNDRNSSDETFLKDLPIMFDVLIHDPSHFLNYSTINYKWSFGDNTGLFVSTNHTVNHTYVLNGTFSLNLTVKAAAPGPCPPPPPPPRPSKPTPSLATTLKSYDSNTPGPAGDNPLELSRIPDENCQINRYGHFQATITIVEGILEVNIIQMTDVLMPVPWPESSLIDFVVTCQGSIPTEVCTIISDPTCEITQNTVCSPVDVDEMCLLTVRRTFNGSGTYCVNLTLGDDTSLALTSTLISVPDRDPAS
Experimental: Certain antibodies, described herein were binned in accordance with the protocol described in U.S. Patent Application Publication No. 20030157730. M×hIgG conjugated beads are prepared for coupling to primary antibody. The volume of supernatant needed is calculated using the following formula: (n+10)×50 μL (where n=total number of samples on plate). Where the concentration is known, 0.5 μg/mL is used. Bead stock is gently vortexed, then diluted in supernatant to a concentration of 2500 of each bead per well or 0.5×10^5/mL and incubated on a shaker in the dark at RT overnight, or 2 hours if at a known concentration of 0.5 μg/mL. Following aspiration, 50 μL of each bead is added to each well of filter plate, then washed once by adding 100 μL/well wash buffer and aspirating. Antigen and controls are added to filter plate 50 μL/well then covered and allowed to incubate in the dark for 1 hour on shaker. Following a wash step, a secondary unknown antibody is added at 50 μL/well using the same dilution (or concentration if known) as is used for the primary antibody. The plates are then incubated in the dark for 2 hours at RT on shaker followed by a wash step. Next, 50 μL/well biotinylated m×hIgG diluted 1:500 is added and allowed to incubate in the dark for 1 hour on shaker at RT. […] Following a wash step, each well is resuspended in 80 μL blocking buffer and read using Luminex. […]

GPNMB [4] = target: T3, GPNMB; experiment: ELISA of hybridoma supernatants for binding to GPNMB
Experimental: After 14 days of culture, hybridoma supernatants were screened for GPNMB specific monoclonal antibodies. In the Primary screen, the ELISA plates (Fisher, Cat. No. 12-565-136) were coated with 50 μL/well of GPNMB (1 μg/mL) in Coating Buffer (0.1 M Carbonate Buffer, pH 9.6, NaHCO3 8.4 g/L), then incubated at 4° C. overnight. After incubation, the plates were washed with Washing Buffer (0.05% Tween 20 in PBS) three times. 200 μL/well Blocking Buffer (0.5% BSA, 0.1% Tween 20, 0.01% Thimerosal in 1×PBS) were added and the plates were incubated at room temperature for 1 h. After incubation, the plates were washed with Washing Buffer three times. Aliquots (50 μL/well) of hybridoma supernatants and positive and negative controls were added, and the plates were incubated at room temperature for 2 h. The positive control used throughout was serum from the relevant GPNMB immunized XenoMouse® mouse and the negative control was serum from the KLH-immunized relevant strain of XenoMouse® mouse. After incubation, the plates were washed three times with Washing Buffer. 100 μL/well of detection antibody goat anti-huIgGfc-HRP (Caltag, Cat. No. H10507, using concentration was 1:2000 dilution) was added and the plates were incubated at room temperature for 1 hour. After incubation, the plates were washed three times with Washing Buffer. 100 μl/well of TMB (BioFX Lab. Cat. No. TMSK-0100-01) was added, and the plates were allowed to develop for about 10 minutes (until negative control wells barely started to show color). 50 μl/well stop solution (TMB Stop Solution (BioFX Lab. Cat. No. STPR-0100-01) was then added and the plates were read on an ELISA plate reader at a wavelength of 450 nm.
Hybridoma supernatants were screened for binding to GPNMB by ELISA as described above in Example 2.

GPNMB [5] = target: T3, GPNMB; experiment: BiaCore 2000 analysis of hybridoma supernatants binding to GPNMB; conditions: mAb captured on protein A; GPNMB at 880 nM; 1:1 kinetic model
Experimental: Certain Hybridoma cell supernatants (29) were analyzed for binding to GPNMB by BiaCore® 2000 biosensor equipped with a research-grade CM5 sensor chip. A 1:25 dilution of cell supernatant was passed over a protein A surface for 5 min followed by washing the surface for 10 mins. Subsequently, GPNMB was injected for 90 sec. over the surface at a concentration of 880 nM followed by dissociation. Double-referenced binding data were obtained by subtracting the signal from a control flow cell and subtracting the baseline drift of a buffer injected just prior to the antigen injection. GPNMB binding data for each mAb was normalized for the amount of mAb captured on each surface. Normalized, drift corrected responses were also measured. The sensorgrams were fit to a simple 1:1 kinetic model.

[6] = TK10 Cells (GPNMB negative control)

B2: 1.2.2: human anti-GPNMB antibody; VH SEQ ID NO: 38, VL SEQ ID NO: 47 (antibody, listed as Homo sapiens, V domains shown)
VH: ITLKESGPTLVKPTQTLTLTCTFSGFSLSAGGVGVGWIRQPPGKALEWLALIYWNDDKRYSPSLRSRLTITKDTSKNQVVLTITNMDPVDTATYYCAHSHYDYDWGSYFDYWGQGTLVTVSSA
VL: DIVMTQTPLSLPVTPGEPASISCRSSQSLLDSDDGNTYLDWYLQKPGQSPQLLIYTLSYRASGVPDRFSGSGSGTDFTLNISRVEAEDVGVYYCMQRIEFPITFGQGTRLEIKR
Geo Mean Ratio of anti-GPNMB Staining (relative to pK16) [2, 6]: L. 0.98 | Geo Mean Ratio of anti-GPNMB Staining (relative to pK16) ([2]; UACC-62 Cells): K. 1.24 | Avg OD (GPNMB [4]; antibody at 12.3 ng/mL): 0.049 | Avg OD (GPNMB [4]; antibody at 37 ng/mL): 0.094 | Avg OD (GPNMB [4]; antibody at 111 ng/mL): 0.199 | Avg OD (GPNMB [4]; antibody at 333 ng/mL): 0.356 | Avg OD (GPNMB [4]; antibody at 1 μg/mL): 0.499 | Avg OD (GPNMB [4]; antibody at 3 μg/mL): 0.763 | ka (GPNMB [5]): 9257 M⁻¹ s⁻¹ | kd (GPNMB [5]): 0.00089 s⁻¹

B4: 1.7.1: human anti-GPNMB antibody; VH SEQ ID NO: 56, VL SEQ ID NO: 65 (antibody, listed as Homo sapiens, V domains shown)
VH: QVQLQESGPGLVKPSQTLSLTCTVSGGSISSANYYWTWIRQHPGKGLEWIGYIYYSGSTYCNPSLKSRVIISVDTSKNQFSLKLSSVTAADTAVYYCARGYNWNYFDYWGQGTLVTVSSA
VL: DIVMTQSPATLSVSPGERATLSCRASQSVSSNLAWYQERPGQAPRLLIYGASTRATGIPARFSGSGSGTEFTLTISSLQSEDFAVYYCQQYNKWPPWTFGQGTKVEIER
ka (GPNMB [5]): 11842 M⁻¹ s⁻¹ | kd (GPNMB [5]): 0.00144 s⁻¹

The next lines start with the values.

IHC staining (GPNMB [1]): Positive staining | Geo Mean Ratio of anti-GPNMB Staining (relative to pK16) [2, 6]: I. 1.10 | Geo Mean Ratio of anti-GPNMB Staining (relative to pK16) ([2]; UACC-62 Cells): H. 4.46 | bin (GPNMB [3]): Bin 1
B1: 2.22.1: human anti-GPNMB antibody; VH SEQ ID NO: 164, VL SEQ ID NO: 173 (antibody, listed as Homo sapiens, V domains shown)
VH: QVQLEQSGPGLVKPSQNLSLTCTVSGGSISSGGYFWSWIRQHPGKGLEWIGYIYYSGNTYYNPSLKSRVTISVDTSKNQFSLKLSSVTAADTAVYYCARDYYYDTSGFSYRYDWYYGMDVWGQGTTVTVSSA
VL: DIQLTQSPSSLSASVGDRVTITCRASQGIRNDLGWYQQKPGKAPKRLIYAASSLQNGVPSRFSGSGSGTEFTLTISSLQPEDFATYYCLQHNTYPAFGQGTKVEIKR

ka (GPNMB [5]): 3955 M⁻¹ s⁻¹ | kd (GPNMB [5]): 0.000466 s⁻¹
B3: 1.10.2: human anti-GPNMB antibody; VH SEQ ID NO: 2, VL SEQ ID NO: 11 (antibody, listed as Homo sapiens, V domains shown)
VH: QVQLQESGPGLVKPSETLSLTCTVSGDSISNYYWSWIRQPPGKGLEWIGYFYYSGSTNYNPSLKSRVTISVDTSKNQFSLKLSSVTAADTAVYYCARDRGWADYWGQGTLVTVSSA
VL: EIVLTQSPGTLSLSPGERATLSCRTSQSISSSYLAWYQQKPGQVPRLLIYGASSRATGIPDRFSGSGSGTDFTLTISRLEPEDFAVYYCQQYGSSITFGQGTRLEIKR

From US20130244255A1, “ANTIBODIES DIRECTED TO GPNMB AND USES THEREOF” (priority 2006, published 2013)
